Source: patent US12460006B2, “Antibodies against integrin alpha 11 beta 1” (Momenta Pharmaceuticals, Inc., priority 2019, dated 2025)
Blank lines part the entries; values can stand above or below the molecule they belong to.

Columns and labels:
[1] = tested on: human pulmonary fibroblasts (HPFs); assay: FACS antibody binding to human pulmonary fibroblasts; conditions: binding Yes/No
I domain of α11β1 = biological target: T1, I domain of α11β1 (Homo sapiens, UniProt Q9UKX5); assay: ELISA binding to in-house generated I domain of α11β1; conditions: Yes/No
T1 construct: An in-house generated I domain of α11β1 was used; made in house
T1 sequence (Q9UKX5 164-345 limits assumed): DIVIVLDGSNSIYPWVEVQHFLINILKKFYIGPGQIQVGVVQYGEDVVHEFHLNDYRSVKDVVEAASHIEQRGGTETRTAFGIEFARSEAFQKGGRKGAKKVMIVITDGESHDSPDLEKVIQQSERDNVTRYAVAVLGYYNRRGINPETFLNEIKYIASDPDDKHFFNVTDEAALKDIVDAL
Procedure, shortened: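 Plate-coated antigen (0.25 μg/mL, overnight 4° C) probed with antibody dilution series 1 h at room temperature, then biotinylated anti-IgG and streptavidin-HRP, 1 h each. TMB substrate 5 min, stopped, absorbance at 450 nm; in-house I domain of α11β1 used as target.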

myofibroblasts (MF) = assay: FACS antibody binding to myofibroblasts; set-up: species or system human; conditions: binding Yes/No
Procedure, shortened: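 Human pulmonary fibroblasts, serum-starved 24 h then TGFβ-1-treated 72 h to give myofibroblasts, were blocked with heat-inactivated FBS and stained with anti-α11 antibodies, then PE secondary, 30 min each at 4 °C, before 1% PFA fixation. Binding read by flow cytometry as PE geometric MFI of single cells.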

[2] = biological target: T2, α11β1 expressed on the surface of CHO-K1 cells (Homo sapiens, UniProt Q9UKX5); assay: FACS antibody binding to CHO-K1 cells expressing human α11; conditions: binding Yes/No
T2 construct: expressed in transfected cells; host or cells: CHO-K1
T2 sequence (Q9UKX5 23-1188): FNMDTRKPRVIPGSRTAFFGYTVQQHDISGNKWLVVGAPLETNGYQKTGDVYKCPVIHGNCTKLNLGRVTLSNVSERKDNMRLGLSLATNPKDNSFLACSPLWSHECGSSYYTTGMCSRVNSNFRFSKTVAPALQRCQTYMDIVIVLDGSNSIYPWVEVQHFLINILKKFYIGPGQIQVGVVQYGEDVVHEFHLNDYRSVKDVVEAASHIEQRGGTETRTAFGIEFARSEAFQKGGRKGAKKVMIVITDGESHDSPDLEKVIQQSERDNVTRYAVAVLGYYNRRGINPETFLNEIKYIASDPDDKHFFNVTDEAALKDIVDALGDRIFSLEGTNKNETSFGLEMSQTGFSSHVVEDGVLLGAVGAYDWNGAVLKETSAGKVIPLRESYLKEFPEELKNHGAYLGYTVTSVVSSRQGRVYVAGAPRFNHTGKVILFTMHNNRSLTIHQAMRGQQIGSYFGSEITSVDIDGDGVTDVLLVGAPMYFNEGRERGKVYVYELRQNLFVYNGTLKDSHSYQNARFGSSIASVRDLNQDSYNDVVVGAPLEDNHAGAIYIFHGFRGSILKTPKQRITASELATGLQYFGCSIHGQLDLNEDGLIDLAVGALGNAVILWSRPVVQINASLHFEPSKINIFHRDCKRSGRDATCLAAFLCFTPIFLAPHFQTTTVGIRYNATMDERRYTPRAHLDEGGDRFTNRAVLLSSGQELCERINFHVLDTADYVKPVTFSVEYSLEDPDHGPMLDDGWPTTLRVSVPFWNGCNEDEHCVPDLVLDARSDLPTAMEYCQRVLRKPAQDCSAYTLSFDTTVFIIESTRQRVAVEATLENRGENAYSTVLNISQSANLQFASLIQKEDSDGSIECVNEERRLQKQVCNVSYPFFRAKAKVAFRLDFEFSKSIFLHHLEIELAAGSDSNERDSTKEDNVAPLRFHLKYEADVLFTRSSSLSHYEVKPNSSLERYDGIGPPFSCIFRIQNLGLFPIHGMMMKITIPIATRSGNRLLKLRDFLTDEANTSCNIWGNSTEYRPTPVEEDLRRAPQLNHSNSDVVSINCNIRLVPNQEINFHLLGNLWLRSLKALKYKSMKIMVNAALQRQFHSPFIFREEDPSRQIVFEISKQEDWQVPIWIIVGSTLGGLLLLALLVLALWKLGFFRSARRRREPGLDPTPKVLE
Procedure, shortened: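 Wild-type or human α11-transfected CHO-K1 cells (endogenous β1) were incubated with antibody at varied concentrations for 30 min at 4° C, then secondary antibody (1:100) 30 min at 4° C. Cells were PFA-fixed and read by flow cytometry; binding EC50 estimated from FACS data.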

- HPF FACS [1]: No
- I Domain binding (I domain of α11β1): No
- MF FACS (myofibroblasts (MF)): Yes
- CHO-K1 FACS [2]: Yes
B1: 7-H14: mouse anti-α11β1 mAb; VH SEQ ID NO: 121, VL SEQ ID NO: 122 (antibody, V domains shown)
VH: QVQLQQPGAELVRPGASVKLSCKPSGYTFTSYWMNWVKQRPGQGLEWIGMIDPSDSETHYNQMFKDKATLTVDKSSNTAYMQLSSLTSEDSAVYYCAQIYYAYDKAYWGQGTLVTVSA
VL: DIVMSQSPSSLAVSVGEKVTMSCKSSQSLLYSSHQKNYLAWYQQKPGQSPKLLIYWASTRESGVPDRFTGSGSGTDFSLTISSVKAEDLAVYYCQEYYSWTFGGGTKLEIK

- HPF FACS [1]: No
- I Domain binding (I domain of α11β1): No
- MF FACS (myofibroblasts (MF)): Yes
- CHO-K1 FACS [2]: Yes
B2: 6G4: rabbit anti-α11β1 mAb; heavy chain SEQ ID NO: 181, light chain SEQ ID NO: 182 (antibody)
heavy: METGLRWLLLVAVLKGVQCQQQLEESGGGLVKPGGTLTLTCKASGVALNPYYYMCWVRQAPGKGLEWIACVDADSSGSTYYASWAKGRFTISKTSSTTVTLKMTSLTAADTATYFCARESVDYSSVGIGYVHGTDGLWGPGTLVTVSSGQPKAPSVFPLAPCCGDTPSSTVTLGCLVKGYLPEPVTVTWNSGTLTNGVRTFPSVRQSSGLYSLSSVVSVTSSSQPVTCNVAHPATNTKVDKTVAPSTCSKPMCPPPELPGGPSVFIFPPKPKDTLMISRTPEVTCVVVDVSQDDPEVQFTWYINNEQVRTARPPLREQQFNSTIRVVSTLPIAHQDWLRGKEFKCKVHNKALPAPIEKTISKARGQPLEPKVYTMGPPREELSSRSVSLTCMINGFYPSDISVEWEKNGKAEDNYKTTPTVLDSDGSYFLYSKLSVPTSEWQRGDVFTCSVMHEALHNHYTQKSISRSPGK
light: MDTRAPTQLLGLLLLWLPGARCADIVVTQTPSSVSAAVGGTVTIKCQASQSISNYFSWYQQKPGQPPKLLIYRASTLASGVPSRFKGSGSGTEFTLTISDLECADAATYYCQCTYGRSNSNFFYGFGGGTEVVVKGDPVAPTVLIFPPAADQVATGTVTIVCVANKYFPDVTVTWEVDGTTQTTGIENSKTPQNSADCTYNLSSTLTLTSTQYNSHKEYTCKVTQGTTSVVQSFNRGDC

- HPF FACS [1]: No
- I Domain binding (I domain of α11β1): No
- MF FACS (myofibroblasts (MF)): Yes
- CHO-K1 FACS [2]: Yes
B3: 7D8B10: rat anti-α11β1 mAb; VH SEQ ID NO: 153, VL SEQ ID NO: 154 (antibody, V domains shown)
VH: MDLRLTYVFIVAILKGVLCEVKLEESGGGLVQPGMSVKLSCATSGFIFSDYWMEWVRQAPGKGLEWVAEIRNKANNYATYYGKSMKGRFTISRDDSKSIVYLQVNSIRSEDTAIYYCAPNFDYWGQGVMVTVSS
VL: MSPVQSLFLLLLWILGTHGDVVLTQTPPTLSATIGQSVSISCRSSQSLLHSTGNTYLNWLLQRPGQPPQLLIYLVSRLESGVPNRFSASGSGTDFTLKISGIEAEDLGVYYCVQSSHTPYTFGTGTKLELK

- HPF FACS [1]: No
- I Domain binding (I domain of α11β1): No
- MF FACS (myofibroblasts (MF)): Yes
- CHO-K1 FACS [2]: Yes
B4: 4E1: rabbit anti-α11β1 mAb; heavy chain SEQ ID NO: 195, light chain SEQ ID NO: 196 (antibody)
heavy: METGLRWLLLVAVLKGVQCQSLEESGGDLVKPGTSLTLSCTASGFSFGSYYYMCWVRQAPGKGLEWIACIDVGSSGDTYYASWVNGRFTISKTSSTTVTLQMTSLTAADTATYFCARDDTAAGGFGNLELWGPGTLVTVSSGQPKAPSVFPLAPCCGDTPSSTVTLGCLVKGYLPEPVTVTWNSGTLTNGVRTFPSVRQSSGLYSLSSVVSVTSSSQPVTCNVAHPATNTKVDKTVAPSTCSKPMCPPPELPGGPSVFIFPPKPKDTLMISRTPEVTCVVVDVSQDDPEVQFTWYINNEQVRTARPPLREQQFNSTIRVVSTLPIAHQDWLRGKEFKCKVHNKALPAPIEKTISKARGQPLEPKVYTMGPPREELSSRSVSLTCMINGFYPSDISVEWEKNGKAEDNYKTTPTVLDSDGSYFLYSKLSVPTSEWQRGDVFTCSVMHEALHNHYTQKSISRSPGK
light: MDTRAPTQLLGLLLLWLPGARCAFELTQTPSSVSEPVGGTVTIKCQASQSIYSYFSWYQQKPGQPPKRLIYQASTLASGVPSRFKGSGSGTDFTLTISDLECADAATYYCQNNYGRGSGSYFFGFGGGTEVVVKGDPVAPTVLIFPPAADQVATGTVTIVCVANKYFPDVTVTWEVDGTTQTTGIENSKTPQNSADCTYNLSSTLTLTSTQYNSHKEYTCKVTQGTTSVVQSFNRGDC

- HPF FACS [1]: No
- I Domain binding (I domain of α11β1): No
- MF FACS (myofibroblasts (MF)): Yes
- CHO-K1 FACS [2]: Yes
B5: 6F9: rabbit anti-α11β1 mAb; heavy chain SEQ ID NO: 183, light chain SEQ ID NO: 184 (antibody)
heavy: METGLRWLLLVAVLKGVQCQSLEESGGDLVKPGASLTLTCTASGSSFSSTYWNCWVRQAPGKGLEWIACINAGSGTTYYASWAKGRFTVSKTSSTTVTLQMTSLTAADTATYFCTRDSDGRFSSGYYFNLWGPGTLVTVSSGQPKAPSVFPLAPCCGDTPSSTVTLGCLVKGYLPEPVTVTWNSGTLTNGVRTFPSVRQSSGLYSLSSVVSVTSSSQPVTCNVAHPATNTKVDKTVAPSTCSKPMCPPPELPGGPSVFIFPPKPKDTLMISRTPEVTCVVVDVSQDDPEVQFTWYINNEQVRTARPPLREQQFNSTIRVVSTLPIAHQDWLRGKEFKCKVHNKALPAPIEKTISKARGQPLEPKVYTMGPPREELSSRSVSLTCMINGFYPSDISVEWEKNGKAEDNYKTTPTVLDSDGSYFLYSKLSVPTSEWQRGDVFTCSVMHEALHNHYTQKSISRSPGK
light: MDTRAPTQLLGLLLLWLPGATFAQVLTQTASPVSAAVGGTVTINCQSSQSVYDNNWLAWYQQKPGQPPKLLIDDASKLTSGVSSRFKGSGSGTQFTLTISGVQCDDAATYYCQGAYYSSGWYWAFGGGTEVVVKGDPVAPTVLIFPPAADQVATGTVTIVCVANKYFPDVTVTWEVDGTTQTTGIENSKTPQNSADCTYNLSSTLTLTSTQYNSHKEYTCKVTQGTTSVVQSFNRGDC

- HPF FACS [1]: No
- I Domain binding (I domain of α11β1): Yes
- MF FACS (myofibroblasts (MF)): Yes
- CHO-K1 FACS [2]: Yes
B6: 9-B11: mouse anti-α11β1 mAb; VH SEQ ID NO: 115, VL SEQ ID NO: 116 (antibody, V domains shown)
VH: QVQLQQPGAELVRPGTSVKLSCKASGYTFTSYWMHWVQQRPGQGLEWIGVIDPSDSYTNYNQKFKGKATLTVDTSSSSAYMQLSSLTSEDSAVYYCARDDVAMDYWGQGTSVTVSS
VL: DIVVTQSPASLAVSLGQRATISCRASESVDSYGNSFIHWYQQKPGQPPKLLIYRASNLKSGIPARFSGSGSRTDFTLTINPVEADDVATYYCQQSNEDPYTFGGGTKLEIK
